Assay results published in paper PMC4570213.

Target: SP1 (endogenous, PIG1 nuclear extract) (UniProt P08047)
Assay: EMSA, supershift
Conditions: 10 ug PIG1 nuclear extract, 300 fmol biotin probe, 1.5 ug poly(dI-dC), kit binding buffer (LightShift; composition, salt and pH not given), 15 ul, 20 min room …

SP1 (endogenous, PIG1 nuclear extract), sequence (P08047 whole entry): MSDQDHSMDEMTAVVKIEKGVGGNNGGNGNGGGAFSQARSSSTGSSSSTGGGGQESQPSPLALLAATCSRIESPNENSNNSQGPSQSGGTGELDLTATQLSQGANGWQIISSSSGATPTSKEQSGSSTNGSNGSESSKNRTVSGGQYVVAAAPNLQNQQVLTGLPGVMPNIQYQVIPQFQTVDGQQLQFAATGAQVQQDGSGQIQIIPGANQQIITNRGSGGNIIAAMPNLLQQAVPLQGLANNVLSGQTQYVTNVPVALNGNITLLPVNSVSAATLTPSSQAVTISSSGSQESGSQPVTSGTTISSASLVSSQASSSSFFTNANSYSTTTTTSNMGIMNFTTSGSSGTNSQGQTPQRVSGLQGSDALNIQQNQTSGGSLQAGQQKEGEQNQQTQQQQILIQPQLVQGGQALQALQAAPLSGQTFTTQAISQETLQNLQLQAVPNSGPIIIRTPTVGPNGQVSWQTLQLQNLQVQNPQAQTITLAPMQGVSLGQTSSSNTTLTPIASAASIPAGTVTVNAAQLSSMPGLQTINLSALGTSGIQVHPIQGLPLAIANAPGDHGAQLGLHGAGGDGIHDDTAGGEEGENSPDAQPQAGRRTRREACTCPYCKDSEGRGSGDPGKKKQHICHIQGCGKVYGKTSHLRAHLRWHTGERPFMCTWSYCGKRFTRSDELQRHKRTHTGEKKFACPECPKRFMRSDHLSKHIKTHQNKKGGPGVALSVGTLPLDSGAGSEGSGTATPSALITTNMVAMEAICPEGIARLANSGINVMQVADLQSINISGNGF

Sequence	binding signal (% of -129C band)
AAGATGGAATGGAATCCAGATGGGCGGGGG (double strand) [AHR promoter -129T probe]	> 100
AAGACGGAATGGAATCCAGATGGGCGGGGG (double strand) [AHR promoter -129C probe]	100
